Experimental data taken from patent US20260250403A1 (BIOCYTOGEN PHARMACEUTICALS BEIJING, published 2026).
Residue numbers refer to the chain shown, from its start. In names and notes the source's numbering stands.

T1: dCD40-His (CD40 Protein, Canine, Recombinant (His Tag), Sino Biological Inc., Cat #: 70105-D08H) (dog, UniProt Q7YRL5 21-194)
T1 construct: Bought protein; also called dog CD40; not shown: His tag
T1 sequence (looked up): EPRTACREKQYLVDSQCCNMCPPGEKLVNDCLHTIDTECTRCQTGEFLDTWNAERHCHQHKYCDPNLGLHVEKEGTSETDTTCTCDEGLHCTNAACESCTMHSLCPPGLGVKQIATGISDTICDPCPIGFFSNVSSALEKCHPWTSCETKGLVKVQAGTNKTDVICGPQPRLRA

B1: 12B5-IgG4-FLAA (antibody, V domains shown)
VH: QVQLVQSGPGLVKPSETLSLTCTVSGGSISYYYWSWIRQPPGKGLEWIGHISYSGSTNYNPSLKSRVTISEDTSKKQFSLKLDSVTAADTAVYYCAGGIVGARRGFDFWGQGTLVTVSS
VL: EIVMTQSPATLSLSPGERATLSCRASQSVSNNLAWYQQKPGQAPRLLIYDASNRAADIPARFSGSGSGTDFTLTISSLEPEDFAVYYCQQRNNWPPTFGQGTKVEIKR
notes: Rest: human IgG4 constant regions with FLAA mutations (F234A and L235A, EU numbering); copies: 2 + 2
B2: 6A4-IgG4-FLAA (antibody, V domains shown)
VH: QVQLVQSGGGLVQPGGSLRLSCAASGFTFSNYVMSWVRQAPGKGLEWVSTIRGSGISTYYTDSVKGRFTTSRDNPKNTLFLQMSSLRAEDTAVYYCAKGIVGATTPFDYWGQGTLVTVSS
VL: B1 VL with M4L, S30R, N31S, N32F, D50E, A51T, A56T, D57G, N92S, N93D
notes: Rest: human IgG4 constant regions with FLAA mutations (F234A and L235A, EU numbering)
B3: Bleselumab analog (antibody, human IgG4, V domains shown)
VH: QLQLQESGPGLLKPSETLSLTCTVSGGSISSPGYYGGWIRQPPGKGLEWIGSIYKSGSTYHNPSLKSRVTISVDTSKNQFSLKLSSVTAADTAVYYCTRPVVRYFGWFDPWGQGTLVTVSS
VL: AIQLTQSPSSLSASVGDRVTITCRASQGISSALAWYQQKPGKAPKLLIYDASNLESGVPSRFSGSGSGTDFTLTISSLQPEDFATYYCQQFNSYPTFGQGTKVEIKR
B4: 2F8-IgG4-FLAA (antibody, V domains shown)
VH: EVQLVQSGGGVVQPGRSLRLSCAASGFSFSSYAMHWVRQVPGKGLEWVSVISYDGDNKYHAESVKGRFTISRDNSKNILYLQMNSLRPEDTAVYYCARRGTVTNYYSYSGLDVWGQGTTVTVSS
VL: DIQLTQSPLSLPVTPGEPASISCRSSQSLLYSNGKNYLDWYLQKPGQSPQLLIYLASNRASGVPDRFSGSGSGTDFTLKISRVEAEDVGVYFCMQALQTPRTFGQGTKVEIKR
notes: as for B2

molecular target: T2, hCD40-His (Human CD40 protein having a His-Tag, Beijing ACROBiosystems Co. Ltd., Cat #: CD0-H5228) (human, UniProt P25942 21-193); experiment: SPR, Biacore 8K, Protein A chip, CD40-His as analyte, 1:1 Langmuir fit
T2 construct: Bought protein; not shown: His tag
T2 sequence (P25942 21-193 limits assumed): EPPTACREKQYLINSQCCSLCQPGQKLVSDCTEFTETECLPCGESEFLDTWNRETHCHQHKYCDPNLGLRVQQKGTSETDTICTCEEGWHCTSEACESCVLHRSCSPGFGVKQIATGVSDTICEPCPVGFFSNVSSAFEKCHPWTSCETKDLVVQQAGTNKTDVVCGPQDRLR
Protocol: (§1) Purified anti-CD40 antibodies at concentrations of 1 μg/ml with 1×HBS-EP+ buffer (PH 7.4) were then injected at 1 μl/min for 50 seconds. Dissociation was monitored for 400 seconds. The chip was regenerated after the last injection of each titration with a glycine solution (pH 2.0) at 30 μl/min for 30 seconds.

| Kd | koff | kon | Binder |
| --- | --- | --- | --- |
| 0.735 nM | 0.000389 s⁻¹ | 529000 M⁻¹ s⁻¹ | B1 |
| 1.66 nM | 0.000511 s⁻¹ | 309000 M⁻¹ s⁻¹ | B2 |
| 1.59 nM | 0.000682 s⁻¹ | 429000 M⁻¹ s⁻¹ | B3 |
| 0.351 nM | 0.000229 s⁻¹ | 654000 M⁻¹ s⁻¹ | B4 |

molecular target: T3, fasCD40-His (Cynomolgus CD40/TNFRSF5 Protein, His Tag, Beijing ACRO Biosystems Co. Ltd., Cat #: CD0-C52H6) (Macaca fascicularis, UniProt G7PG38 21-193); experiment: as above
T3 construct: Bought protein; also called monkey (Macaca fascicularis) CD40; not shown: His tag
Protocol: as §1

| Kd | koff | kon | Binder |
| --- | --- | --- | --- |
| 0.495 nM | 0.000265 s⁻¹ | 535000 M⁻¹ s⁻¹ | B1 |
| 51.7 nM | 0.0149 s⁻¹ | 288000 M⁻¹ s⁻¹ | B2 |
| 3.35 nM | 0.000907 s⁻¹ | 270000 M⁻¹ s⁻¹ | B3 |
| 0.301 nM | 0.000297 s⁻¹ | 989000 M⁻¹ s⁻¹ | B4 |

molecular target: T1, dCD40-His (CD40 Protein, Canine, …); experiment: as above
Protocol: as §1

| Kd | koff | kon | Binder |
| --- | --- | --- | --- |
| 32.1 nM | 0.0129 s⁻¹ | 401000 M⁻¹ s⁻¹ | B1 |
| 5.18 nM | 0.00266 s⁻¹ | 513000 M⁻¹ s⁻¹ | B4 |

molecular target: hFcRn-His (FCGRT&B2M Heterodimer Protein, His Tag&Strep II Tag, Beijing ACROBiosystems Co. Ltd., Cat #: FCM-H5286) (human) (UniProt P61769); experiment: SPR, Biacore 8K or T200, Protein A chip, steady state affinity model, pH 6.0; pH 6.0

| Kd | Binder |
| --- | --- |
| 497 nM | B1 |
